The assay concerns proteins that co-immunoprecipitated with DUX4-CTD constructs expressed in MB135 myoblasts. Put plainly: LC-MS of proteins co-immunoprecipitated with DUX4-CTD (Table 1) and western validation. Type of assay: binding, human. Details: key to 4. mL1dL2 + Dox + IFNG / 4. + IFNG mix / 4. longCTD + Dox + IFNG / 3. + IFNg + Dox longCTD / 3. + Dox longCTD / 3. + IFNG longCTD: peptide-spectrum matches (PSMs) per protein. To be noted: for 4. longCTD + Dox + IFNG: LC-MS counts of the listed protein co-immunoprecipitated with DUX4-CTD bait longCTD; for 4. longCTD + Dox + IFNG / 4. mL1dL2 + Dox + IFNG: experiment 4, Dox + IFNG; for 4. mL1dL2 + Dox + IFNG: LC-MS counts of the listed protein co-immunoprecipitated with DUX4-CTD bait mL1dL2; for 3. + Dox longCTD / 3. + IFNg + Dox longCTD: bait longCTD; for 3. + Dox longCTD: experiment 3, Dox only; for 3. + IFNg + Dox longCTD: experiment 3, IFNg + Dox; for SUM of PSMS: sum over all samples. In outline: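 Two independent experiments compared uninduced, doxycycline and doxycycline+IFNG MB135iDUX4-CTD (plus MB135iDUX4mL1dL2) myoblasts. Anti-FLAG pulldowns (3 h, 4 °C) were eluted in LDS buffer for western validation or with FLAG peptide for trypsin digestion and Orbitrap LC-MS; hits needed ≥2 PSMs in both experiments, ranked by total PSMs.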

B1: Q92973 (protein, UniProt Q92973 1-898, looked up)
chain: MVWDRQTKMEYEWKPDEQGLQQILQLLKESQSPDTTIQRTVQQKLEQLNQYPDFNNYLIFVLTKLKSEDEPTRSLSGLILKNNVKAHFQNFPNGVTDFIKSECLNNIGDSSPLIRATVGILITTIASKGELQNWPDLLPKLCSLLDSEDYNTCEGAFGALQKICEDSAEILDSDVLDRPLNIMIPKFLQFFKHSSPKIRSHAVACVNQFIISRTQALMLHIDSFIENLFALAGDEEPEVRKNVCRALVMLLEVRMDRLLPHMHNIVEYMLQRTQDQDENVALEACEFWLTLAEQPICKDVLVRHLPKLIPVLVNGMKYSDIDIILLKGDVEEDETIPDSEQDIRPRFHRSRTVAQQHDEDGIEEEDDDDDEIDDDDTISDWNLRKCSAAALDVLANVYRDELLPHILPLLKELLFHHEWVVKESGILVLGAIAEGCMQGMIPYLPELIPHLIQCLSDKKALVRSITCWTLSRYAHWVVSQPPDTYLKPLMTELLKRILDSNKRVQEAACSAFATLEEEACTELVPYLAYILDTLVFAFSKYQHKNLLILYDAIGTLADSVGHHLNKPEYIQMLMPPLIQKWNMLKDEDKDLFPLLECLSSVATALQSGFLPYCEPVYQRCVNLVQKTLAQAMLNNAQPDQYEAPDKDFMIVALDLLSGLAEGLGGNIEQLVARSNILTLMYQCMQDKMPEVRQSSFALLGDLTKACFQHVKPCIADFMPILGTNLNPEFISVCNNATWAIGEISIQMGIEMQPYIPMVLHQLVEIINRPNTPKTLLENTAITIGRLGYVCPQEVAPMLQQFIRPWCTSLRNIRDNEEKDSAFRGICTMISVNPSGVIQDFIFFCDAVASWINPKDDLRDMFCKILHGFKNQVGDENWRRFSDQFPLPLKERLAAFYGV
modifications: full-length
With B1, the “4. longCTD + Dox + IFNG” value is reported as 3, the “4. mL1dL2 + Dox + IFNG” value turned out to be 6, the “3. + Dox longCTD” value was found to be 1 and the “3. + IFNg + Dox longCTD” value is 4. The “SUM of PSMS” value is 14.

B2: O95373 (protein, UniProt O95373 1-1038, looked up)
chain: MDPNTIIEALRGTMDPALREAAERQLNEAHKSLNFVSTLLQITMSEQLDLPVRQAGVIYLKNMITQYWPDRETAPGDISPYTIPEEDRHCIRENIVEAIIHSPELIRVQLTTCIHHIIKHDYPSRWTAIVDKIGFYLQSDNSACWLGILLCLYQLVKNYEYKKPEERSPLVAAMQHFLPVLKDRFIQLLSDQSDQSVLIQKQIFKIFYALVQYTLPLELINQQNLTEWIEILKTVVNRDVPNETLQVEEDDRPELPWWKCKKWALHILARLFERYGSPGNVSKEYNEFAEVFLKAFAVGVQQVLLKVLYQYKEKQYMAPRVLQQTLNYINQGVSHALTWKNLKPHIQGIIQDVIFPLMCYTDADEELWQEDPYEYIRMKFDVFEDFISPTTAAQTLLFTACSKRKEVLQKTMGFCYQILTEPNADPRKKDGALHMIGSLAEILLKKKIYKDQMEYMLQNHVFPLFSSELGYMRARACWVLHYFCEVKFKSDQNLQTALELTRRCLIDDREMPVKVEAAIALQVLISNQEKAKEYITPFIRPVMQALLHIIRETENDDLTNVIQKMICEYSEEVTPIAVEMTQHLAMTFNQVIQTGPDEEGSDDKAVTAMGILNTIDTLLSVVEDHKEITQQLEGICLQVIGTVLQQHVLEFYEEIFSLAHSLTCQQVSPQMWQLLPLVFEVFQQDGFDYFTDMMPLLHNYVTVDTDTLLSDTKYLEMIYSMCKKVLTGVAGEDAECHAAKLLEVIILQCKGRGIDQCIPLFVEAALERLTREVKTSELRTMCLQVAIAALYYNPHLLLNTLENLRFPNNVEPVTNHFITQWLNDVDCFLGLHDRKMCVLGLCALIDMEQIPQVLNQVSGQILPAFILLFNGLKRAYACHAEHENDSDDDDEAEDDDETEELGSDEDDIDEDGQEYLEILAKQAGEDGDDEDWEEDDAEETALEGYSTIIDDEDNPVDEYQIFKAIFQTIQNRNPVWYQALTHGLNEEQRKQLQDIATLADQRRAAHESKMIEKHGGYKFSAPVVPSSFNFGGPAPGMN
modifications: full-length
As for B2, the “4. longCTD + Dox + IFNG” value was found to be 1, the “4. mL1dL2 + Dox + IFNG” value came to 3, the “3. + Dox longCTD” value is reported as 4 and the “3. + IFNg + Dox longCTD” value was found to be 8. For the same molecule, the “SUM of PSMS” value was determined as 16.

Source of the values: US20250339531A1, “DUX4 POLYPEPTIDES AND NUCLEIC ACIDS FOR TREATING INFLAMMATORY AND AUTOIMMUNE CONDITIONS” (Fred Hutchinson Cancer Center, priority 2021, published 2025).
